Experiments:
[1] = molecular target: NlpA-ZZ fusion protein; test: flow cytometry of NlpA-ZZ spheroplasts labeled with 5 nM FITC-conjugated Human IgG; residual fluorescence at Time 0 min
[2] = molecular target: NlpA-ZZ fusion protein; test: flow cytometry of spheroplasts expressing NlpA-ZZ, labeled with 50 nM FITC-conjugated Human IgG
[3] = molecular target: NlpA-ZZ fusion protein; test: flow cytometry of NlpA-ZZ spheroplasts labeled with 5 nM FITC-conjugated Human IgG; residual fluorescence at Time 240 min
[4] = molecular target: NlpA-80R(scFv)
[5] = molecular target: NlpA-ZZ fusion protein; test: flow cytometry of NlpA-ZZ spheroplasts labeled with 5 nM FITC-conjugated Human IgG; residual fluorescence at Time 20 min
[6] = molecular target: NlpA-ZZ fusion protein; test: flow cytometry of NlpA-ZZ spheroplasts labeled with 5 nM FITC-conjugated Human IgG; residual fluorescence at Time 120 min
[7] = molecular target: NlpA-ZZ fusion protein; test: flow cytometry of NlpA-ZZ spheroplasts labeled with 5 nM FITC-conjugated Human IgG; residual fluorescence at Time 10 min
[8] = molecular target: NlpA-ZZ fusion protein; test: flow cytometry of NlpA-ZZ spheroplasts labeled with 5 nM FITC-conjugated Human IgG; residual fluorescence at Time 1440 min
[9] = molecular target: NlpA-ZZ fusion protein; test: flow cytometry of NlpA-ZZ spheroplasts labeled with 5 nM FITC-conjugated Human IgG; residual fluorescence at Time 60 min
[10] = molecular target: NlpA-ZZ fusion protein; test: flow cytometry of NlpA-ZZ spheroplasts labeled with 5 nM FITC-conjugated Human IgG; residual fluorescence at Time 180 min
[11] = molecular target: NlpA-ZZ fusion protein; test: flow cytometry of NlpA-ZZ spheroplasts labeled with 5 nM FITC-conjugated Human IgG; residual fluorescence at Time 30 min
[12] = molecular target: NlpA-ZZ fusion protein; test: flow cytometry of NlpA-ZZ spheroplasts labeled with 5 nM FITC-conjugated Human IgG; residual fluorescence at Time 4320 min

commercial Human IgG antibodies (FITC-conjugated) (antibody)
M (FL1-Height) [1]: 153 | M (FL1-Height) [2]: 2760 | M (FL1-Height) [3]: 142 | M (FL1-Height) [4]: 3 | M (FL1-Height) [5]: 143 | M (FL1-Height) [6]: 133 | M (FL1-Height) [7]: 150 | M (FL1-Height) [8]: 146 | M (FL1-Height) [9]: 136 | M (FL1-Height) [10]: 148 | M (FL1-Height) [11]: 147 | M (FL1-Height) [12]: 154

From patent US20130303393A1
